Experimental data as given in the supplement of paper PMC10899765.

What was measured:
Conditions in all cases: 20 nM; 72 h
MCF10A [1] = assay: 5+ nucleoli phenotype percent effect (relative to siNT 0% and siKIF11 100%); higher = more cells with five or more nucleoli
Procedure: (§1)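 After 72 h, cells were fixed and stained with Hoechst and anti-fibrillarin, and nucleoli per nucleus were counted with CellProfiler. Values are plate-adjusted percent effect for the one-nucleolus and 5+ nucleoli phenotypes, normalised to siNT (0%) and to the positive controls siNOL11 or siKIF11 (100%), as the mean of biological triplicates. Percent viability is the nuclei count relative to siNT.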

MCF10A [2] = assay: percent viability (nuclei count relative to siNT); higher = more viable cells
Procedure: as §1

MCF10A [3] = assay: one-nucleolus phenotype percent effect (relative to siNT 0% and siNOL11 100%); higher = more cells with one nucleolus (ribosome biogenesis inhibition)
Procedure: as §1

Row | Sequence | 5+ nucleoli phenotype percent effect (MCF10A [1]) [%] | percent viability (MCF10A [2]) [%] | one-nucleolus phenotype percent effect (MCF10A [3]) [%]
1 | GUGGGUAGGGUUUGGGGGAGAGCG [hsa-miR-1229-5p] | 53.7 | 67.9 | -23.1
2 | AAAGACUCUGCAAGAUGCCU [hsa-miR-4432] | -6.99 | 67.3 | -5.81
3 | CUGGGGUUCUGAGACAGACAGU [hsa-miR-3170] | -46.2 | 9.55 | 40.9
4 | GAAGAACUGUUGCAUUUGCCCU [hsa-miR-4511] | 26.2 | 121 | -30.8
5 | UUAGACCUAGUACACGUCCUU [hsa-miR-3684] | 16.1 | 85.2 | -19.2
6 | AACUGGAUCAAUUAUAGGAGUG [hsa-miR-1243] | 53.3 | 174 | -29.3
7 | CCGCCUUCUCUCCUCCCCCAG [hsa-miR-6880-3p] | 65.6 | 117 | -31.4
8 | ACAAGGUGUGCAUGCCUGACC [hsa-miR-4761-5p] | -24.8 | 18.1 | 53.7
9 | AACUGGCCUACAAAGUCCCAGU [hsa-miR-193a-3p] | -15.2 | 21.9 | 29.5
10 | ACUGUAAACGCUUUCUGAUG [hsa-miR-3607-3p] | 42.2 | 124 | -18.5
11 | AAAUGUCACCUUUUUGAGAGGA [hsa-miR-513b-3p] | -25.5 | 94.2 | -7.38
12 | AGAAGUAACUACGGUUUUUGCA [hsa-miR-548ao-5p] | 27.5 | 74.5 | -16.5
13 | CACAGCAAGUGUAGACAGGCA [hsa-miR-3120-3p] | 22.9 | 51.8 | -20.3
14 | ACAGGCAGGAUUGGGGAA [hsa-miR-4514] | -12 | 18.4 | 32.3
15 | CGGUGAGCGCUCGCUGGC [hsa-miR-4792] | -30.2 | 36.6 | 21.1
16 | CUCAGUGACUCAUGUGC [hsa-miR-4276] | -21.3 | 72.6 | 17.5
17 | AAAGAUCUGGAAGUGGGAGACA [hsa-miR-3156-5p] | 45.1 | 43.6 | -18.8
18 | CGGCCCGGGCUGCUGCUGUUCCU [hsa-miR-1538] | 45 | 144 | -27.8
19 | UAAUACUGUCUGGUAAAACCGU [hsa-miR-429] | 61.9 | 112 | -19
20 | AGCAGGUGCGGGGCGGCG [hsa-miR-3665] | -20.8 | 33 | 40.6
21 | GCUGGUCUGCGUGGUGCUCGG [hsa-miR-3663-5p] | 52.4 | 123 | -23.3
22 | AACUGUUUGCAGAGGAAACUGA [hsa-miR-452-5p] | 28.4 | 103 | -22.3
23 | CGAGCCUCAAGCAAGGGACUU [hsa-miR-2114-3p] | -15.9 | 32.7 | 19.8

Row | Sequence | 5+ nucleoli phenotype percent effect (MCF10A [1]) [%] | percent viability (MCF10A [2]) [%] | one-nucleolus phenotype percent effect (MCF10A [3]) [%]
24 | CUCAAACCGGCUGUGCCUGUGG [hsa-miR-6715b-3p] | -11.8 | 62.7 | 10
25 | CUGGGACAGGAGGAGGAGGCAG [hsa-miR-4298] | 39.2 | 67.8 | -17.4
26 | GGGUCCCGGGGAGGGGGG [hsa-miR-4281] | 25.6 | 100 | -17.2
27 | GCUGCACCGGAGACUGGGUAA [hsa-miR-3130-3p] | 26.7 | 65 | -5.32
28 | GAAGACUUCUUGGAUUACAGGGG [hsa-miR-8087] | -8.56 | 112 | 2.61
29 | CUCACUGAACAAUGAAUGCAA [hsa-miR-181b-3p] | 22 | 61.5 | -19.6
30 | AUGGGGACAGGGAUCAGCAUGGC [hsa-miR-6810-5p] | -23.9 | 25.9 | 45.5
31 | GAGACAGGUUCAUGCUGCUA [hsa-miR-4524b-3p] | -32.4 | 25.8 | 37.3
32 | AAAAGUAACUGCGGUUUUUGA [hsa-miR-548ak] | 45.4 | 89.9 | -23.5
33 | UGUAGGCAUGAGGCAGGGCCCAGG [hsa-miR-6806-5p] | 44.5 | 32.5 | -16.3
34 | UUCACUGGAGUUUGUUUCAAUA [hsa-miR-653-3p] | -0.303 | 57.9 | -7.51
35 | ACCUGUCUGUGGAAAGGAGCUA [hsa-miR-4421] | -6.29 | 30.7 | 15.9
36 | CGUGCCACCCUUUUCCCCAG [hsa-miR-1227-3p] | -2.5 | 93.4 | 6.65
37 | AUCACACAAAGGCAACUUUUGU [hsa-miR-377-3p] | -2.87 | 129 | -9.96
38 | AUAGGACUCAUAUAGUGCCAG [hsa-miR-3117-3p] | 33 | 35.4 | -13.2
39 | GCAGGCACAGACAGCCCUGGC [hsa-miR-4269] | -29 | 30.1 | 43.1
40 | GGGCUCACAUCACCCCAU [hsa-miR-4284] | 8.32 | 40.5 | -1.42
41 | UGUAACAGCAACUCCAUGUGGA [hsa-miR-194-5p] | -7.22 | 84.3 | 8.64
42 | AGGAGAGUGGAUUCCAGGUGGU [hsa-miR-5192] | 20.1 | 24.2 | 10.4
43 | UGAGGGAGUAGGAUGUAUGGUU [hsa-miR-4510] | -17.6 | 16.6 | 13.3
44 | CUGAAGUGAUGUGUAACUGAUCAG [hsa-miR-573] | -8.65 | 69 | -6.66
45 | AUGGUCUCCUGUUCUCUGCAG [hsa-miR-6843-3p] | 7.69 | 31.7 | 10.8
